In publication doi:10.1101/2025.10.12.681846v1 (bioRxiv, 2025):
Read-outs that look alike come from different tables or passages of the source.

Assays:
[1] = Biodistribution and intra-tissue distribution in diabetic mice; type: in vivo; details: three days after s.c. 10 mg/kg; CD31 staining
[2] = SPECT/CT imaging of 131I-labelled insulin-129 in diabetic mice; type: in vivo; details: s.c. 10 mg/kg
[3] = test system: STZ-induced type 1 diabetic mice; experiment: Type 1 diabetes treatment study in mice; type: in vivo, C57BL/6 mice
type 1 diabetic mice [4] = experiment: In vivo glucose-responsive insulin release in mice; details: for initial PIL: before glucose 3 g/kg
type 1 diabetic minipigs [5] = experiment: Type 1 diabetes treatment study in minipigs; type: in vivo, Bama minipigs; details: for time BG remained within the target range (70 to 200 mg/dL): n = 3, statistical time 0-168 h for insulin-129 and 0-24 h for Lantus
mouse IgG1-Fc = mouse IgG1-Fc (Mus musculus, UniProt P01868); experiment: SPR binding to mouse IgG1-Fc; details: for Kd: read-out: KD for IgG1-Fc, SPR, 25 °C, DPBS pH 7.4
Chain of mouse IgG1-Fc (P01868 98-324 limits assumed): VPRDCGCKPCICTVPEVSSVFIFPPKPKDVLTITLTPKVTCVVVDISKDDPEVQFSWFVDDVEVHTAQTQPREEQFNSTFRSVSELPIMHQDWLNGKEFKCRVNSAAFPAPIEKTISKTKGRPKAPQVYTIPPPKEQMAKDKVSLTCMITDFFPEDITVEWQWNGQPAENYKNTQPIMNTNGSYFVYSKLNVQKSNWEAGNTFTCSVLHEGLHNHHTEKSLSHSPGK

mouse nostrin = molecular target: T1, mouse nostrin (Mus musculus, UniProt Q6WKZ7); experiment: SPR binding to mouse nostrin; details: for Kd: read-out: KD for nostrin, SPR, 25 °C, DPBS pH 7.4
T1 sequence (Q6WKZ7 1-506): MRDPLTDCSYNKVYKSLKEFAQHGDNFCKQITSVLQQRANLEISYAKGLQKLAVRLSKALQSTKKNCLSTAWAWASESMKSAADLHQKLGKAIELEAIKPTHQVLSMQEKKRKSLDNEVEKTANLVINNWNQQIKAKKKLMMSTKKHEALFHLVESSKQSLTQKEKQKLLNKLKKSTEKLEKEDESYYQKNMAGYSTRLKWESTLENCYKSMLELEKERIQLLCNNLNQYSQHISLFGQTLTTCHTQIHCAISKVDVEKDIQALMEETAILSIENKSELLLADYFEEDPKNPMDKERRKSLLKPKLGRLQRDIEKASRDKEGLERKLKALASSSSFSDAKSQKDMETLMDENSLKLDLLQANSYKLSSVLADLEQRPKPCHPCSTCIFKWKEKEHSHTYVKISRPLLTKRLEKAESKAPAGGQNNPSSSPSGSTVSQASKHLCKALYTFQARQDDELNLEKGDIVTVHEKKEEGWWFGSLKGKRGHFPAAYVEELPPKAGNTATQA

human IgG1-Fc = human IgG1-Fc (Homo sapiens, UniProt P01857); experiment: SPR binding to human IgG1-Fc; details: read-out: KD for human IgG1-Fc
human nostrin = molecular target: T2, human nostrin (Homo sapiens, UniProt Q8IVI9); experiment: SPR binding to human nostrin; details: read-out: KD for human nostrin
T2 sequence (Q8IVI9 1-506): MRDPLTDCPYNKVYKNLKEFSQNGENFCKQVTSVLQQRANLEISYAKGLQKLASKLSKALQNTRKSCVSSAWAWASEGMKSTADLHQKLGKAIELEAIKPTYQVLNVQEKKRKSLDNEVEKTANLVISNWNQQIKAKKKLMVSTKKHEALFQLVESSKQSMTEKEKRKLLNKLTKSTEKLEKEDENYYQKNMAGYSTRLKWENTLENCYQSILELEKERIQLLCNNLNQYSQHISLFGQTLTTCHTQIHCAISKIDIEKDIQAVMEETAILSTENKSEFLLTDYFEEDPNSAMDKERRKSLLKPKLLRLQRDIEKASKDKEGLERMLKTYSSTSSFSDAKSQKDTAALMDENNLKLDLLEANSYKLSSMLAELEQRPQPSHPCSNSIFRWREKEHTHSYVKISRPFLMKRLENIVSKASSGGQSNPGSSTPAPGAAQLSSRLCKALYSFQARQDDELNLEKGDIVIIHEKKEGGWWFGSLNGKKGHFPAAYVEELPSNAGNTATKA

[6] = test system: STZ-induced type 1 diabetic mice; experiment: Long-term therapy as weekly formulation in diabetic mice; type: in vivo, C57BL/6 mice; details: for BG drop in the first few hours after injection: n = 5
[7] = Pharmacokinetics after subcutaneous injection in diabetic mice; type: in vivo; details: s.c. 12 mg/kg
[8] = Pharmacokinetics after intravenous injection in healthy mice; type: in vivo, C57BL/6J mice; details: i.v. 1 nmol/kg, two-compartment model, n = 5
type 1 diabetic mice [9] = experiment: Intraperitoneal glucose tolerance test in diabetic mice; type: in vivo; details: i.p. glucose 1.5 g/kg, n = 5
[10] = test system: STZ-induced type 1 diabetic mice; experiment: Isoglycaemic clamp at hyperglycaemia in diabetic mice; type: in vivo; details: BG clamped at 400 mg/dL; one day after 12 mg/kg; n = 5
healthy mice = experiment: Isoglycaemic; type: in vivo; details: summary statement
[11] = Pharmacokinetic studies in diabetic minipigs; type: in vivo, Bama minipigs; details: s.c., two-compartmental model, n = 3
type 1 diabetic minipigs [12] = experiment: In vivo blood glucose-responsive insulin release in minipigs; details: for BG rise within 30 minutes: one day after insulin-129, i.v. glucose infusion
type 1 diabetic minipigs [13] = experiment: Fully automated insulin delivery system in diabetic minipigs; type: in vivo; details: 48 h
diabetic mice = experiment: Toxicity evaluation and histomorphology in mice; type: in vivo; details: one week post-injection, 10 mg/kg
[14] = five days after 12 mg/kg, n = 5
[15] = one day after 12 mg/kg, i.p. glucose 3 g/kg
[16] = one day after 12 mg/kg, i.p. glucose 3 g/kg, n = 5

Cy5-labelled insulin-129: insulin-129 labelled with Sulfo-Cy5-NHS
vascular association within the major organs [1]: high level of vascular association

^131I-labelled insulin-129: insulin-129 labelled by 131I using the chloramine T labelling method
skin absorption [2]: rapid skin absorption

insulin glargine [reference compound]
glycaemic control with consecutive daily injections ([3]; 40 U/kg every 24 hours for seven days, n = 5): poor glycaemic control | time normoglycaemia maintained ([3]; single s.c. 40 U/kg (equivalent to 1.46 mg/kg), n = 5): 4 h | time normoglycaemia maintained ([3]; single s.c. 400 U/kg (equivalent to 14.6 mg/kg), n = 5): 12 h | BG-correlated changes of insulin level (type 1 diabetic mice [4]; 400 U/kg, i.p. glucose 3.0 g/kg at three and six hours, n = 5): did not display BG-correlated changes | time BG regulated in the normal range (type 1 diabetic minipigs [5]; Pig-Ⅰ, single dose 0.25 U/kg): less than 12 hours | time BG regulated in the normal range (type 1 diabetic minipigs [5]; Pig-Ⅱ, single dose 0.33 U/kg): less than 24 hours | time BG regulated in the normal range (type 1 diabetic minipigs [5]; Pig-Ⅲ, single dose 0.48 U/kg): less than 12 hours | time BG remained within the target range (70 to 200 mg/dL) (type 1 diabetic minipigs [5]): 42.9%

insulin icodec [reference compound]
duration relative to insulin-129 at 12 mg/kg ([3]; 400 U/kg): roughly one-third | time normoglycaemia maintained ([3]; single s.c. 400 U/kg (equivalent to 15.3 mg/kg), n = 5): approximately 72 hours

insulin-129: recombinant human insulin with 4-carboxy-3-fluorophenylboronic acid (FPBA) covalently conjugated at A1 and B29 sites
increase in KD for IgG1-Fc (mouse IgG1-Fc; glucose from 5 to 20 mM): 5.0 fold | Kd (mouse IgG1-Fc; 5 mM glucose): 137 nM | Kd (mouse IgG1-Fc; 10 mM glucose): 276 nM | Kd (mouse IgG1-Fc; 20 mM glucose): 691 nM | Kd (mouse IgG1-Fc; absence of glucose): 42.4 nM | increase in KD for nostrin (mouse nostrin; glucose from 0 to 20 mM): 19.5 fold | increase in KD for nostrin (mouse nostrin; glucose from 5 to 20 mM): 8.4 fold | Kd (mouse nostrin; 5 mM glucose): 201 nM | Kd (mouse nostrin; 10 mM glucose): 605 nM | Kd (mouse nostrin; 20 mM glucose): 1680 nM | Kd (mouse nostrin; absence of glucose): 86 nM | Kd (human IgG1-Fc): 36.7 nM | Kd (human nostrin): 241 nM | lowest average BG level ([3]; one hour after s.c. 12 mg/kg, mean ± s.d., n = 5, SD): 76.0 ± 6.4 mg/dL | treatment duration among the three insulin analogues ([3]; s.c. 4 mg/kg, insulin-1, insulin-29 and insulin-129, n = 5): longest duration | hypoglycaemia (BG < 70 mg/dL) ([3]; s.c. 4, 8 and 12 mg/kg, any mouse): No hypoglycaemia | extension of normoglycaemia compared with insulin glargine ([3]; single injection): approximately 47.5 folds | time kept normoglycaemic ([3]; single s.c. 4 mg/kg, n = 5): 46 h | time kept normoglycaemic ([3]; single s.c. 8 mg/kg, n = 5): 142 h | time kept normoglycaemic ([3]; single s.c. 12 mg/kg, n = 5): 190 h | normoglycaemia maintained by each injection ([6]; 10 mg/kg then three weekly 4.8 mg/kg s.c.): one week | time remaining effective before BG returned to original level ([6]; after the fourth injection): more than 800 hours | BG drop in the first few hours after injection ([6]; first injection (10 mg/kg s.c.)): 89.6 ± 13.1 mg/dL | BG drop in the first few hours after injection ([6]; fourth weekly injection (4.8 mg/kg s.c.)): 78.8 ± 8.8 mg/dL | stabilised BG ([6]; one day after the fourth injection): approximately 150 mg/dL | BG drop in the first few hours after injection ([6]; second weekly injection (4.8 mg/kg s.c.)): 79.6 ± 12.4 mg/dL | BG drop in the first few hours after injection ([6]; third weekly injection (4.8 mg/kg s.c.)): 77.8 ± 5.4 mg/dL | time to peak plasma insulin-129 level ([7]; ELISA): within one hour | peak average plasma insulin-129 level (PIL) ([7]; ELISA, n = 5): 1320.0 ± 41.3 μU/mL | t1/2α ([7]; two-compartment model, n = 5): 5.4 ± 1.3 h | t1/2β ([7]; two-compartment model, n = 5): 147.8 ± 16.8 h | average t1/2β [8]: 112.5 ± 17.4 h | BG before glucose administration (type 1 diabetic mice [9]; day 1 after 12 mg/kg): 96.8 ± 19.7 mg/dL | peaking BG within 15 minutes (type 1 diabetic mice [9]; day 1 after 12 mg/kg): 194.8 ± 31.9 mg/dL | BG before glucose administration (type 1 diabetic mice [9]; day 5 after 12 mg/kg): 163.1 ± 27.7 mg/dL | peaking BG within 15 minutes (type 1 diabetic mice [9]; day 5 after 12 mg/kg): 310.3 ± 44.2 mg/dL | synchronised increase in insulin level upon glucose injection (type 1 diabetic mice [4]; STZ-induced type 1 diabetic mice, summary statement): more than 3 fold | initial PIL (type 1 diabetic mice [4]; [14]): 210.2 ± 31.7 μU/mL | peak PIL (type 1 diabetic mice [4]; five days after 12 mg/kg, i.p. glucose 3 g/kg, n = 5): 573.7 ± 40.0 μU/mL | PIL after decline within 120 minutes (type 1 diabetic mice [4]; [14]): 204.3 ± 52.0 μU/mL | initial PIL (type 1 diabetic mice [4]; one day after 12 mg/kg, n = 5): 258.6 ± 37.6 μU/mL | BG by 45 minutes (type 1 diabetic mice [4]; [15]): below 200 mg/dL | increase in PIL (type 1 diabetic mice [4]; [15]): approximately 4.2 fold | BG spike at 30 minutes (type 1 diabetic mice [4]; [16]): 310.7 ± 29.2 mg/dL | peak PIL (type 1 diabetic mice [4]; [16]): 1080.4 ± 49.6 μU/mL | PIL after decline (type 1 diabetic mice [4]; one day after 12 mg/kg, in tandem with the BG reduction, n = 5): 257.3 ± 45.2 μU/mL | mean glucose infusion rate compared with insulin glargine (5 U/kg) [10]: comparable mean glucose infusion rates | temporal change in blood glucose clearance determined by clamp studies (healthy mice): 2 fold | time BG remained within the target range (70 to 200 mg/dL) (type 1 diabetic minipigs [5]): 73.0% | half-life [11]: 127.5 ± 36.6 h | baseline serum insulin-129 level (type 1 diabetic minipigs [12]; Pig I): 369.1 μU/mL | peak serum insulin-129 level (type 1 diabetic minipigs [12]; Pig I, glucose infusion): 907.3 μU/mL | baseline serum insulin-129 level (type 1 diabetic minipigs [12]; Pig II): 375.5 μU/mL | peak serum insulin-129 level (type 1 diabetic minipigs [12]; Pig II, glucose infusion): 1108.0 μU/mL | baseline serum insulin-129 level (type 1 diabetic minipigs [12]; Pig III): 430.6 μU/mL | peak serum insulin-129 level (type 1 diabetic minipigs [12]; Pig III, glucose infusion): 1520.5 μU/mL | BG rise within 30 minutes (type 1 diabetic minipigs [12]; Pig Ⅰ): 399.6 mg/dL | BG rise within 30 minutes (type 1 diabetic minipigs [12]; Pig Ⅱ): 316.8 mg/dL | BG rise within 30 minutes (type 1 diabetic minipigs [12]; Pig Ⅲ): 599.4 mg/dL | BG by 45 minutes (type 1 diabetic minipigs [12]; Pigs Ⅰ, Ⅱ and Ⅲ): below 200 mg/dL | rise of serum insulin-129 level from baseline (type 1 diabetic minipigs [12]; glucose infusion, Pigs I, II and III): approximately threefold | BG levels below 50 mg/dL (type 1 diabetic minipigs [13]; first of three minipigs): 0% | BG levels below 50 mg/dL, average (type 1 diabetic minipigs [13]; mean ± s.d., n = 3, SD): 1.7 ± 2.2% | BG levels below 50 mg/dL (type 1 diabetic minipigs [13]; second of three minipigs): 1.0% | BG levels below 50 mg/dL (type 1 diabetic minipigs [13]; third of three minipigs): 4.2% | histomorphological analysis of major organs by H&E staining (diabetic mice): no apparent pathological alterations
